Test results published in the supplement of paper PMC12636428.

Test system: Saccharomyces cerevisiae
Experiment: transcriptional activation domain activity (GFP:mCherry ratio, weighted mean of sorted bins, harmonized to initial dataset scale) (arbitrary fluorescence ratio units); higher = stronger transcriptional activation
Conditions: beta-estradiol 1 µM; induction time 4 h
Summary of the method: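 Barcoded tiles were sequenced after cells were sorted into 8 bins by GFP:mCherry ratio. Before sorting, cultures had been diluted 1:5 into SC with 1 uM beta-estradiol and held for 4 hours at 30 °C. The tiles were fused to an estradiol-inducible synthetic transcription factor and integrated at URA3 in yeast diploids carrying a GFP reporter. Activation activity is the read-weighted mean of bin median fluorescence, averaged over barcodes and linearly mapped onto the initial dataset scale, and tiles under 50 reads were left out.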

Sequence | transcriptional activation domain activity
QSPSISMEPVSINETGSAYTTTNTALNDIDIPFSINELNELYKQVSSHNSHSQ | 84100
MLSSKLNGRSQFICHLCHTGSLLTSVTLIFPFHHTYLHFLGWNLTLLTTVWFF | 60600
CLCLILLALLAVELMALFVVITLVILLLIVIVLSLILLFANLMLPLVFLLLYI | 26400
MVHIVVVLCIVFCLLLCFKRRAQQLSSYCHASLRYFNLPPNFHQYYEQRFILV | 78400
ALRLCRSLLFLCFPFTPIHFFWGSYSDFPPFFFLPAFPRLTLSLLLFYLLPFS | 55100
LLHLAISQLQAYLDRFRTRLNAVHALHLKRLILFLTALDQFTCARVAGMKVRS | 33700
MKVFCSSFPFSNPILFYFSLLQIIFDYWLYNFMGSFYFWLPLAPFFFFFFLVL | 47500
GRNAGREDNSNNRNRRGDRRGAPREARAGGNTNGQQQQQQKKGGAPKAAAVDP | 35600
FLNRYLGLLGNIPVILEFFGNFTEHMFVFAFCFWLAFTQLVVIALLIIRTYAL | 65900
RFFIRVLSNLKIDRHNSMYCTLGRPITILNLILRGWYVVRKFIILLFSIVLLF | 54100
FLVLRYGALIGHVPLFYNVFADPCKTPHLIHILAFYHYIFVFVLTALTTVLLV | 49400
GSSAEGEGDKEKTAVKRKRDSQVTGQQQQQQQQRADSSNRATSRKRRKTNKEG | 60100
RKTKFPILLSGDGYIHFGFLYAVIPNLNIMAMSYVAVINNVRVVAYLCLWMSL | 50800
EGEGEEEAVTLKKTKKGRGGEEEAAKKGKKKGDEEDPAWEEAAAKKGKKKGEE | 37800
EHRVMSAKIKAGELIDNGRFVDEKSFEKPPIHFHLICDHNIRVLLIIIHHSLY | 21300
VCKLLRLETLRWIFREFHWKLHLRKRFLPYHLLTYMRTLRITANNSIKHLSFN | 41000
HKRKRTGQEEVAKKPKESRRDKKTRRKRTEPDEEIASADTKERRRKSAGAEKS | 20800

Sequence | transcriptional activation domain activity
RLFAELFMFSICLFSRVLSYFSVFQLQLINVLMYFLPLMIICGYWAGLLNVAI | 52500
DGKTRRSKVRPRRGAPTGAAGSPAAAGSSKSDTEANSDKGAAGKKRKPRPARK | 37100
MASPASSTEQQRAAKRKSHRKSRNGCFQCKQRHSKVSQSSTLLAAAASNLSRT | 27100
DSEEERMRRRRAKSRDPERERERKASRSPEKKPARSKSRLGRLAAGAAAAGAA | 50300
MVYQGGVTFLCNFYILFPFFPFFFCFCKVSFLFCFCIFLFFCSWDGGLFLFLF | 62700
PGKCINEFIEVVCKLADSGRLSLRMLVDIVVLFWNLTRVHCEQFSHKFLRLLH | 15900
GRTLSRYEPTNVCVVLILIWLGIYHYFLQVLQVRTHATARKIVLLYGWYTLRI | 53400
ADIHDVVYYGTFTGIFPKLHWWIQKTLHLLKPFGLLSSRQVLVHFMLFHAEQR | 83800
MREYIRFYFDTLHSSRVFVVWLLTHVLFLEKDRLKAMFAKDEFNGIEEIKMRY | 24900
MLPLVLLLLLLLLLLLLLLLLLLLLLLLLLIMMMIMMMMFLLFLLLLRARVRQ | 13600
ILQNDLKFDQILESSYNNSNHTVSKFKVSHYVEESGLLDILMQRYGLTAEDFE | 57600
EPIQNEIAKLFHSGGDSVVDILFSQTSATEFVTVGGTGNVYHWDMEYSFSRND | 67800
MGVWFGMAVLFLFLHLGFFLFCYFICLLLDNSFFLSWPLETVRALQMGLQIGG | 36700
MFLFLFLFVFLFVFLFLFLFLFLFLFLFLFMFPFLFPFLFPFPFPFPFPVLVL | 52700
KAVAALRRQTGQEAVEVEVAPIRQKRRETVGATVTTARPVAGSQTGPALTQVT | 14800
SLDLEILEELEKLISAQEFSRNFTEDVDESLQSEIDLMNYDNEALNQLMAIDL | 137000
MWTFGMIQLYYSPYWGDTRWFWLDYPKTLLSPTFKWYYLIQFAFWLQQLLLAL | 73400
